According to article PMC11470950:

Each binder was assayed against T1, RVFV nucleoprotein (N) (Rift Valley fever virus, UniProt D3K5I7 1-245) (assay: fluorescence bead binding assay).
T1 sequence: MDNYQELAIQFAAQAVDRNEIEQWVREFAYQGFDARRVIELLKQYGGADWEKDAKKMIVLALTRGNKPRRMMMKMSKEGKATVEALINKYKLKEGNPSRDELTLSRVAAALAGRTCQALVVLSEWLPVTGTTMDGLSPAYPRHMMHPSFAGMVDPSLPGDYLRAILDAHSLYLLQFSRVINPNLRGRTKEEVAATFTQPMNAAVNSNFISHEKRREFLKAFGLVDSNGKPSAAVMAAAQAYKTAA

Binder	Kd [nM]
CTCCAGCGTAAACTACTGAAGACTGTGCCGGAAAGATC (ssDNA) [RV-2 (RVF 2)]	15.4
CAGAAAAAGTGCCGACCGAACGATGTGTAAGCGCTATGAGA (ssDNA) [RV-5]	41
AGATGTCCTGCGTCGAGACACTTCTGCATTACTACGTTGG (ssDNA) [RV-3 (RVF 3)]	18.6
